Among the data in US20150086535A1 are survivin protein level in BJ fibroblasts (ECL and quantitative LICOR immunoblotting) values, retold here.

For the test, the target named is retinoblastoma protein (RB1) (human) (UniProt P06400). Description: cell-based or functional assay.
Sequence of retinoblastoma protein (RB1) (human) (P06400 2-928 limits assumed): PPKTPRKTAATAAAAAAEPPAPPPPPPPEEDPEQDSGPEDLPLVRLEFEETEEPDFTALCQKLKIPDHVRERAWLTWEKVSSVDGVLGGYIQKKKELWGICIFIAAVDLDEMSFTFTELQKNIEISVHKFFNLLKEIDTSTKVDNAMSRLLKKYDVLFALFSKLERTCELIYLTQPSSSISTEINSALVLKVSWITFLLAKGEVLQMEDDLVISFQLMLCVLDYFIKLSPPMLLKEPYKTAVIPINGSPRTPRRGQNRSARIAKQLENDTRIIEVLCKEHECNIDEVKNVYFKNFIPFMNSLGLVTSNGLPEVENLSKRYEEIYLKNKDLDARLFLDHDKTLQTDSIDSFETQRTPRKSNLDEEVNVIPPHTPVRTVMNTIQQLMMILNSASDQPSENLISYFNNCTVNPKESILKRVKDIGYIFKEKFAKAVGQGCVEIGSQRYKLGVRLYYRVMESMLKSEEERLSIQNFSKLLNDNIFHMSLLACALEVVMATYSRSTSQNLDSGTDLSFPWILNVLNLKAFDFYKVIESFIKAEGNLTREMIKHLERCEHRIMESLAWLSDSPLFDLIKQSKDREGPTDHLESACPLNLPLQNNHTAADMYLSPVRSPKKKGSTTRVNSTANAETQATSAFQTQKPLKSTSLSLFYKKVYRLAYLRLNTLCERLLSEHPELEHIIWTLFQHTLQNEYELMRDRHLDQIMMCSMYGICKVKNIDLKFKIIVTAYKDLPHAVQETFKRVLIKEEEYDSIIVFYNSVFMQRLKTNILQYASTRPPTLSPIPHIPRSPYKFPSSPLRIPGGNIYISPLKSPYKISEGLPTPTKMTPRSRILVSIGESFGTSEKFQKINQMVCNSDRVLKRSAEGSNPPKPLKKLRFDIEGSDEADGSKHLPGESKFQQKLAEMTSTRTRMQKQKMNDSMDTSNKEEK

On to “Truncated tumor-derived Merkel cell polyomavirus large T antigen LT339 (MCV339 strain, amino acid 1-455)”, for which the survivin protein level in BJ fibroblasts (ECL and quantitative LICOR immunoblotting) amounted to 3 fold.
